According to patent US20140087995A1 (published 2014):
Numbered stars: 1 amine (or outer) side, 2 acyl side, 3 side chain; on linkers, the order of the positions; unused ones are H or OH. Bridge positions count the residues as written; N and C are the ends. Side chains are listed from the residue outwards. Ends that are not written are not given here. * marks the point of attachment. C20 diacid = O=C(O)CCCCCCCCCCCCCCCCCCC(=O)*; γGlu = O=C(O)[C@H](CCC(=O)[*:2])N[*:1]

Experiments:
[1] = target: T1, human amylin 3(a) receptor (human calcitonin receptor co-expressed with RAMP-3) (human, UniProt P30988 25-474; O60896 24-148, limits assumed); assay: cell-based or functional assay
T1 sequence (looked up) 1: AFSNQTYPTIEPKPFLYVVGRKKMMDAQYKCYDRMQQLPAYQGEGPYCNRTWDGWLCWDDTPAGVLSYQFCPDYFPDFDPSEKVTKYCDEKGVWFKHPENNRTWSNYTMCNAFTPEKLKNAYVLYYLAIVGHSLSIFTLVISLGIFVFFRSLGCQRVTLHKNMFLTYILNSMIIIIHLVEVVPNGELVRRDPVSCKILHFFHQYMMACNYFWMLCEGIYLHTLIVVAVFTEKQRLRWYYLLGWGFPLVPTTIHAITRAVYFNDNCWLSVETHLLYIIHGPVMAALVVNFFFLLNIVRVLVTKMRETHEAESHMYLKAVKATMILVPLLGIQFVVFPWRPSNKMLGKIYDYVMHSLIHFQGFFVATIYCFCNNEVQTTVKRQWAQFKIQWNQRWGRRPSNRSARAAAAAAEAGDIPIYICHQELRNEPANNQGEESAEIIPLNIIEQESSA
T1 sequence (looked up) 2: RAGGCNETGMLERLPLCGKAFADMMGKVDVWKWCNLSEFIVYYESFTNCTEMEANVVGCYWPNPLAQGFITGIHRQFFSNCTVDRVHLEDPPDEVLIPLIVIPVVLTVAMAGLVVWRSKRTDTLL

[2] = target: T2, human calcitonin receptor (human, UniProt P30988 25-474); assay: cell-based or functional assay
T2 sequence (looked up): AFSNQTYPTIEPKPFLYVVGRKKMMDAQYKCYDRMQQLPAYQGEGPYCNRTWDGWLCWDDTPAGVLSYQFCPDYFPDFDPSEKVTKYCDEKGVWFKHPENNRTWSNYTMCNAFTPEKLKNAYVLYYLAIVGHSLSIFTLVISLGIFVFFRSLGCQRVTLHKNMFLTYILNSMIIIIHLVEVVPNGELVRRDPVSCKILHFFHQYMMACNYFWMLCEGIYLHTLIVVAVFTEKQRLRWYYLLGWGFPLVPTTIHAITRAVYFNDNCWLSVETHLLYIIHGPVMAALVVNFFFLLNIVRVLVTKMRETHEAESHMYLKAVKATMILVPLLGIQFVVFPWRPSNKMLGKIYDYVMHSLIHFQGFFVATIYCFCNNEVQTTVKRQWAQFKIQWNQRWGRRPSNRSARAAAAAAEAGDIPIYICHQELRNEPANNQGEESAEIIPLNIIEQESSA

[3] = target: T1, human amylin 3(a) receptor (human …); assay: SPA competition binding, membranes of Amylin 3(a)/CRE-luc BHK cells, displacement of 125I-rat amylin (Assay (V))
Protocol: The binding assay was performed using scintillation proximity assay (SPA) beads (RPNQ0001) from PerkinElmer and cell membranes from the Amylin 3(a)/CRE-luc cells (as described in Assay (II)) were used. Membranes were prepared in the following way; the cells were rinsed with PBS and incubated with Versene for approximately 5 min before harvesting. The cells were flushed with PBS and the cell-suspension was centrifuged for 5 min at 1000 rpm. Cells were homogenized (ultrathurrax) in a buffer containing 20 mM Na-HEPES and 10 mM EDTA (pH 7.4) and centrifuged at 20.000 rpm for 15 min. The resulting pellet was resuspended, homogenized and centrifuged (20.000 rpm, 15 min) in a buffer containing 20 mM Na-HEPES and 0.1 mM EDTA (pH 7.4, buffer 2). The resulting pellet was resuspended in buffer 2 and protein concentration was measured (BCA protein Assay, Pierce). The homogenate was kept cold during the whole procedure. The membranes were kept at −80° C. until use. The assay was performed in a 384 well Optiplate (PerkinElmer) in a total volume of 40 ul. Membranes were mixed with SPA beads. Final concentration of membranes 35 ng/μL final and SPA beads was 0.05 mg/well. Test-compounds were dissolved in DMSO and further diluted in assay buffer (50 mM Hepes, pH 7.4, 1 mM CaCl2, 5 mM MgCl₂, 0.1% OA and 0.02% Tween20). […] The final mixture was incubated with shaking at 400 rpm for 120 min at 25° C. prior to centrifugation (1500 rpm, 10 min). Samples were analyzed on TopCounter™ (Packard). The IC₅₀ was calculated using (one site binding competition analysis) GraphPad Prism5 as a measure of receptor affinity.

B1: N^ε1-[(4S)-4-carboxy-4-(19-carboxynonadecanoylamino)butanoyl]-[Glu14,Arg17,Pro21,Pro27,His34,Glu35]-h-amylin (peptide)
peptide: K([γGlu-C20 diacid])CNTATCATQRLAEFLRHSSPNFGAIPSSTNVGHETY-NH2
modifications: disulfide 2-7; N-terminus assumed
SMILES: CC[C@H](C)[C@H](NC(=O)[C@H](C)NC(=O)CNC(=O)[C@H](Cc1ccccc1)NC(=O)[C@H](CC(N)=O)NC(=O)[C@@H]1CCCN1C(=O)[C@H](CO)NC(=O)[C@H](CO)NC(=O)[C@H](Cc1c[nH]cn1)NC(=O)[C@H](CCCNC(=N)N)NC(=O)[C@H](CC(C)C)NC(=O)[C@H](Cc1ccccc1)NC(=O)[C@H](CCC(=O)O)NC(=O)[C@H](C)NC(=O)[C@H](CC(C)C)NC(=O)[C@H](CCCNC(=N)N)NC(=O)[C@H](CCC(N)=O)NC(=O)[C@@H](NC(=O)[C@H](C)NC(=O)[C@@H]1CSSC[C@H](NC(=O)[C@@H](N)CCCCNC(=O)CC[C@H](NC(=O)CCCCCCCCCCCCCCCCCCC(=O)O)C(=O)O)C(=O)N[C@@H](CC(N)=O)C(=O)N[C@@H]([C@@H](C)O)C(=O)N[C@@H](C)C(=O)N[C@@H]([C@@H](C)O)C(=O)N1)[C@@H](C)O)C(=O)N1CCC[C@H]1C(=O)N[C@@H](CO)C(=O)N[C@@H](CO)C(=O)N[C@H](C(=O)N[C@@H](CC(N)=O)C(=O)N[C@H](C(=O)NCC(=O)N[C@@H](Cc1c[nH]cn1)C(=O)N[C@@H](CCC(=O)O)C(=O)N[C@H](C(=O)N[C@@H](Cc1ccc(O)cc1)C(N)=O)[C@@H](C)O)C(C)C)[C@@H](C)O
notes: also called compound 107
hAmylin-R funct. EC50 [1]: 0.405 nM
Ratio hCT/hAmylin funct. [2]: 6.3
hCTR funct. EC50 [2]: 2.54 nM
IC50 [3]: 0.387 nM

B2: N^ε1-[(4S)-4-carboxy-4-[[(4S)-4-carboxy-4-(19-carboxynonadecanoylamino)butanoyl]amino]butanoyl]-[Glu14,Arg17,Pro21,Pro27,Arg34,Glu35]-h-amylin (peptide)
peptide: K([γGlu-γGlu-C20 diacid])CNTATCATQRLAEFLRHSSPNFGAIPSSTNVGRETY-NH2
modifications: disulfide 2-7; N-terminus assumed
SMILES: CC[C@H](C)[C@H](NC(=O)[C@H](C)NC(=O)CNC(=O)[C@H](Cc1ccccc1)NC(=O)[C@H](CC(N)=O)NC(=O)[C@@H]1CCCN1C(=O)[C@H](CO)NC(=O)[C@H](CO)NC(=O)[C@H](Cc1c[nH]cn1)NC(=O)[C@H](CCCNC(=N)N)NC(=O)[C@H](CC(C)C)NC(=O)[C@H](Cc1ccccc1)NC(=O)[C@H](CCC(=O)O)NC(=O)[C@H](C)NC(=O)[C@H](CC(C)C)NC(=O)[C@H](CCCNC(=N)N)NC(=O)[C@H](CCC(N)=O)NC(=O)[C@@H](NC(=O)[C@H](C)NC(=O)[C@@H]1CSSC[C@H](NC(=O)[C@@H](N)CCCCNC(=O)CC[C@H](NC(=O)CC[C@H](NC(=O)CCCCCCCCCCCCCCCCCCC(=O)O)C(=O)O)C(=O)O)C(=O)N[C@@H](CC(N)=O)C(=O)N[C@@H]([C@@H](C)O)C(=O)N[C@@H](C)C(=O)N[C@@H]([C@@H](C)O)C(=O)N1)[C@@H](C)O)C(=O)N1CCC[C@H]1C(=O)N[C@@H](CO)C(=O)N[C@@H](CO)C(=O)N[C@H](C(=O)N[C@@H](CC(N)=O)C(=O)N[C@H](C(=O)NCC(=O)N[C@@H](CCCNC(=N)N)C(=O)N[C@@H](CCC(=O)O)C(=O)N[C@H](C(=O)N[C@@H](Cc1ccc(O)cc1)C(N)=O)[C@@H](C)O)C(C)C)[C@@H](C)O
hAmylin-R funct. EC50 [1]: 0.703 nM
Ratio hCT/hAmylin funct. [2]: 10.6
hCTR funct. EC50 [2]: 7.43 nM
IC50 [3]: 0.957 nM

B3: N^ε1-[(4S)-4-carboxy-4-(19-carboxynonadecanoylamino)butanoyl]-[His14,Arg17,Pro21,Pro27,Pro34,Pro37]-h-amylin (peptide)
peptide: K([γGlu-C20 diacid])CNTATCATQRLAHFLRHSSPNFGAIPSSTNVGPNTP-NH2
modifications: disulfide 2-7; N-terminus assumed
SMILES: CC[C@H](C)[C@H](NC(=O)[C@H](C)NC(=O)CNC(=O)[C@H](Cc1ccccc1)NC(=O)[C@H](CC(N)=O)NC(=O)[C@@H]1CCCN1C(=O)[C@H](CO)NC(=O)[C@H](CO)NC(=O)[C@H](Cc1c[nH]cn1)NC(=O)[C@H](CCCNC(=N)N)NC(=O)[C@H](CC(C)C)NC(=O)[C@H](Cc1ccccc1)NC(=O)[C@H](Cc1c[nH]cn1)NC(=O)[C@H](C)NC(=O)[C@H](CC(C)C)NC(=O)[C@H](CCCNC(=N)N)NC(=O)[C@H](CCC(N)=O)NC(=O)[C@@H](NC(=O)[C@H](C)NC(=O)[C@@H]1CSSC[C@H](NC(=O)[C@@H](N)CCCCNC(=O)CC[C@H](NC(=O)CCCCCCCCCCCCCCCCCCC(=O)O)C(=O)O)C(=O)N[C@@H](CC(N)=O)C(=O)N[C@@H]([C@@H](C)O)C(=O)N[C@@H](C)C(=O)N[C@@H]([C@@H](C)O)C(=O)N1)[C@@H](C)O)C(=O)N1CCC[C@H]1C(=O)N[C@@H](CO)C(=O)N[C@@H](CO)C(=O)N[C@H](C(=O)N[C@@H](CC(N)=O)C(=O)N[C@H](C(=O)NCC(=O)N1CCC[C@H]1C(=O)N[C@@H](CC(N)=O)C(=O)N[C@H](C(=O)N1CCC[C@H]1C(N)=O)[C@@H](C)O)C(C)C)[C@@H](C)O
hAmylin-R funct. EC50 [1]: 0.052 nM
Ratio hCT/hAmylin funct. [2]: 0.8
hCTR funct. EC50 [2]: 0.04 nM
IC50 [3]: 0.131 nM

B4: N^ε1-[(4S)-4-carboxy-4-[[(4S)-4-carboxy-4-(19-carboxynonadecanoylamino)butanoyl]amino]butanoyl]-[Glu14,Arg17,Pro21,Pro27,Pro34,Glu35]-h-amylin (peptide)
peptide: K([γGlu-γGlu-C20 diacid])CNTATCATQRLAEFLRHSSPNFGAIPSSTNVGPETY-NH2
modifications: disulfide 2-7; N-terminus assumed
SMILES: CC[C@H](C)[C@H](NC(=O)[C@H](C)NC(=O)CNC(=O)[C@H](Cc1ccccc1)NC(=O)[C@H](CC(N)=O)NC(=O)[C@@H]1CCCN1C(=O)[C@H](CO)NC(=O)[C@H](CO)NC(=O)[C@H](Cc1c[nH]cn1)NC(=O)[C@H](CCCNC(=N)N)NC(=O)[C@H](CC(C)C)NC(=O)[C@H](Cc1ccccc1)NC(=O)[C@H](CCC(=O)O)NC(=O)[C@H](C)NC(=O)[C@H](CC(C)C)NC(=O)[C@H](CCCNC(=N)N)NC(=O)[C@H](CCC(N)=O)NC(=O)[C@@H](NC(=O)[C@H](C)NC(=O)[C@@H]1CSSC[C@H](NC(=O)[C@@H](N)CCCCNC(=O)CC[C@H](NC(=O)CC[C@H](NC(=O)CCCCCCCCCCCCCCCCCCC(=O)O)C(=O)O)C(=O)O)C(=O)N[C@@H](CC(N)=O)C(=O)N[C@@H]([C@@H](C)O)C(=O)N[C@@H](C)C(=O)N[C@@H]([C@@H](C)O)C(=O)N1)[C@@H](C)O)C(=O)N1CCC[C@H]1C(=O)N[C@@H](CO)C(=O)N[C@@H](CO)C(=O)N[C@H](C(=O)N[C@@H](CC(N)=O)C(=O)N[C@H](C(=O)NCC(=O)N1CCC[C@H]1C(=O)N[C@@H](CCC(=O)O)C(=O)N[C@H](C(=O)N[C@@H](Cc1ccc(O)cc1)C(N)=O)[C@@H](C)O)C(C)C)[C@@H](C)O
hAmylin-R funct. EC50 [1]: 0.225 nM
Ratio hCT/hAmylin funct. [2]: 10.5
hCTR funct. EC50 [2]: 2.36 nM
IC50 [3]: 0.121 nM

B5: N^ε1-[(4S)-4-carboxy-4-(19-carboxynonadecanoylamino)butanoyl]-[Glu14,Arg17,Pro21,Pro27,Pro34,Pro37]-h-amylin (peptide)
peptide: K([γGlu-C20 diacid])CNTATCATQRLAEFLRHSSPNFGAIPSSTNVGPNTP-NH2
modifications: disulfide 2-7; N-terminus assumed
SMILES: CC[C@H](C)[C@H](NC(=O)[C@H](C)NC(=O)CNC(=O)[C@H](Cc1ccccc1)NC(=O)[C@H](CC(N)=O)NC(=O)[C@@H]1CCCN1C(=O)[C@H](CO)NC(=O)[C@H](CO)NC(=O)[C@H](Cc1c[nH]cn1)NC(=O)[C@H](CCCNC(=N)N)NC(=O)[C@H](CC(C)C)NC(=O)[C@H](Cc1ccccc1)NC(=O)[C@H](CCC(=O)O)NC(=O)[C@H](C)NC(=O)[C@H](CC(C)C)NC(=O)[C@H](CCCNC(=N)N)NC(=O)[C@H](CCC(N)=O)NC(=O)[C@@H](NC(=O)[C@H](C)NC(=O)[C@@H]1CSSC[C@H](NC(=O)[C@@H](N)CCCCNC(=O)CC[C@H](NC(=O)CCCCCCCCCCCCCCCCCCC(=O)O)C(=O)O)C(=O)N[C@@H](CC(N)=O)C(=O)N[C@@H]([C@@H](C)O)C(=O)N[C@@H](C)C(=O)N[C@@H]([C@@H](C)O)C(=O)N1)[C@@H](C)O)C(=O)N1CCC[C@H]1C(=O)N[C@@H](CO)C(=O)N[C@@H](CO)C(=O)N[C@H](C(=O)N[C@@H](CC(N)=O)C(=O)N[C@H](C(=O)NCC(=O)N1CCC[C@H]1C(=O)N[C@@H](CC(N)=O)C(=O)N[C@H](C(=O)N1CCC[C@H]1C(N)=O)[C@@H](C)O)C(C)C)[C@@H](C)O
hAmylin-R funct. EC50 [1]: 0.105 nM
Ratio hCT/hAmylin funct. [2]: 0.9
hCTR funct. EC50 [2]: 0.09 nM
IC50 [3]: 0.214 nM
